Data taken from PMC11718114 (Nature Communications, 2025).

How the values were obtained:
Details in all cases: both partners purified
[1] = molecular target: T1, PI3Kα: p110α(2-1068)W1057A/I1058A/F1059A + p85(322-600) (human, UniProt P42336 2-1068; P27986 322-600, W1057A | I1058A | F1059A); experiment: ITC; RAS GTPase (GMPPNP-bound, 300–500 μM) in the syringe, PI3K isoform or PI3Kα-RBD (30–50 μM) in the cell; 25 °C; 20 mM HEPES pH 7.4, 150 mM NaCl, 5 mM MgCl2, 1 mM TCEP; one set of sites; two replicates
T1 construct: human PIK3CA (p110α), residues 2-1068; human PIK3R1 (p85α), residues 322-600 (nSH2-iSH2), untagged; also called PI3Ka; PI3Kα (p110α + p85); source: insect cells (baculovirus), co-expressed, purified (IMAC, TEV cleavage, second IMAC, anion exchange, SEC); not shown: His6, N-terminal, cleaved; MBP, N-terminal, cleaved

[2] = molecular target: T2, PI3Kα-RBD, PIK3CA-RBD(157-289) (human, UniProt P42336 157-289); experiment: as above
T2 construct: also called PI3Ka-RBD; p110α-RBD; source: E. coli, purified (IMAC, TEV cleavage, second IMAC, SEC); not shown: His6, N-terminal, cleaved; MBP, N-terminal, cleaved

[3] = molecular target: T3, PI3Kα-RBD (PIK3CA-RBD(157-289)) (human, UniProt P42336 157-289); experiment: ITC; GMPPNP-bound RAS (300–500 μM) in the syringe, PI3K isoform or PI3Kα-RBD (30–50 μM) in the cell; 25 °C; 20 mM HEPES pH 7.4, 150 mM NaCl, 5 mM MgCl2, 1 mM TCEP; one set of sites; duplicates
T3 construct: also called p110α-RBD; p110α RBD; source: E. coli, purified (IMAC, TEV cleavage, second IMAC, SEC); not shown: His6, N-terminal, cleaved; MBP, N-terminal, cleaved

[4] = molecular target: T4, PI3Kα: p110α(2-1068) W1057A/I1058A/F1059A + p85(322-600) (human, UniProt P42336 2-1068; P27986 322-600, W1057A | I1058A | F1059A); experiment: as above
T4 construct: PIK3CA (p110α, catalytic subunit of PI3Kα), human, residues 2-1068; PIK3R1 (p85α regulatory subunit), human, residues 322-600 (nSH2-iSH2), untagged; also called PIK3CA(2-1068)W1057A/I1058A/F1059A + PIK3R1(322-600); p110α/p85; source: insect cells (baculovirus), co-expressed, purified (IMAC, TEV cleavage, second IMAC, anion exchange, SEC); not shown: His6, N-terminal, cleaved; MBP, N-terminal, …

B1: RRAS2(1-179)-Q36A, GMPPNP-bound (domain or fragment, human, UniProt P62070 1-179, looked up)
chain: MAAAGWRDGSGQEKYRLVVVGGGGVGKSALTIQFIASYFVTDYDPTIEDSYTKQCVIDDRAARLDILDTAGQEEFGAMREQYMRTGEGFLLVFSVTDRGSFEEIYKFQRQILRVKDRDEFPMILIGNKADLDHQRQVTQEEGQQLARQLKVTYMEASAKIRMNVDQAFHELVRVIRKFQ
notes: limits for the ITC are not separately stated; also called RRAS2-Q36A; source: E. coli, purified (IMAC, TEV cleavage, second IMAC, SEC); not shown: His6, N-terminal, cleaved; MBP, N-terminal, cleaved
**Q.** B1 was tested. Which Kd [1] did it give?
**A.** 2.1 µM

**Q.** And the “stoichiometry N” value [1]?
**A.** 0.95 sites

**Q.** And the Kd [2]?
**A.** 4.9 µM

**Q.** And the “stoichiometry N” value [2]?
**A.** 1.12 sites

B2: RRAS2(1-179)-Q36A (domain or fragment, human, UniProt P62070 1-179, looked up)
chain: B1 chain
notes: RRAS2 (TC21), human, residues 1-179; Limits 1-179 are stated for the crystals; also called RRAS2-Q36A; source: E. coli, purified (IMAC, TEV cleavage, second IMAC, SEC); exchanged to GMPPNP; not shown: His6, N-terminal, cleaved; MBP, N-terminal, cleaved
**Q.** B2 was tested. Which “fold increase in binding affinity against wild-type RRAS2” value [3] did it give?
**A.** 2 fold

B3: RRAS(22-192) (domain or fragment, human, UniProt P10301 22-192, looked up)
chain: GDPPPSETHKLVVVGGGGVGKSALTIQFIQSYFVSDYDPTIEDSYTKICSVDGIPARLDILDTAGQEEFGAMREQYMRAGHGFLLVFAINDRQSFNEVGKLFTQILRVKDRDDFPVVLVGNKADLESQRQVPRSEASAFGASHHVAYFEASAKLRLNVDEAFEQLVRAVRK
notes: source: E. coli, purified (IMAC, TEV cleavage, second IMAC, SEC); exchanged to GMPPNP; not shown: His6, N-terminal, cleaved; MBP, N-terminal, cleaved
**Q.** Does B3 bind [4]?
**A.** binds

**Q.** Does B3 bind [3]?
**A.** binds
